We go through 13 molecules from patent publication US20240059758A1 (published 2024).

Where two headings read alike, the source gives them in different places.

The target in assay [1] is T1, receptor binding domain (RBD) of the S1-subunit of SARS-CoV-2 glycoprotein S (UniProt P0DTC2 319-541). Briefly: flow.
For assay [2], the target named is T2, RBD-mFc (UniProt P0DTC2 319-591). Briefly: ELISA. On the technique in general: In an ELISA, binding on a coated surface is turned into a signal by an enzyme label.
In assay [3] the target is T3, S1-mFc (UniProt P0DTC2 14-694). The assay can be described thus: ELISA.
Assay [4] has as its target T1, receptor binding domain (RBD) of the …. Briefly: flow. The source holds these as a separate data set.
The target in assay [5] is T2, RBD-mFc. Briefly: ELISA. This is another data set of the same source.
For assay [6], the target named is T3, S1-mFc. Briefly: ELISA. The source holds these as a separate data set.
The target of assay [7] is S1- (UniProt P0DTC2 14-1210). Briefly: ELISA.

B1: STE72-8A2 (antibody, V domains shown)
VH: QVQLVQSGAEVKKPGASVKVSCKASGYTFTSYGISWVRQAPGQGLEWMGWISAYNGNTNYAQKLQGRVTMTTDTSTSTAYMELRSLRSDDTAVYYCARFFYDSSGYSTDYWGQGTLVTVSS
VL: not shown
Broadly, the IC50 is the midpoint of a concentration-inhibition curve. As usually defined, the EC50 is the concentration giving half of the maximal effect. Read a low EC50 as greater potency. Consider B1, for which the IC50 in assay [1] stood at 1.5 nM. In addition, the EC50 in assay [2] was 1.5 nM; in assay [3], 2.3 nM.

B2: STE72-8A6 (antibody, V domains shown)
VH: QVQLVQSGAEVKKPGASVKVSCKASGYTFTSYGISWVRQAPGQGLEWMGWISAYNGNTNYAQKLQGRVTMTTDTSTSTAYMELRSLRSDDTAVYYCARFFYDSSGYSTDYWGQGTLVTVSS
VL: DIVMTQSPSTLSASVGDRVTISCRASQNIGTWLAWYQQKPGKAPKLLISKASSLESGVPSRFSGSGSGTDFTLTISSLQPDDFATYYCQQYDSYLFTFGQGTKLEIR
Turning to B2, in assay [1], the IC50 came to 2.8 nM. Also, the figures for the EC50 in assay [2] and in assay [3] were 1.5 nM and 2.9 nM, respectively.

B3: STE72-2G4 (antibody, V domains shown)
VH: QVQLVQSGAEVKKPGASVKVSCKASGYTFTSYGISWVRQAPGQGLEWMGWISAYNGNTNYAQKLQGRVTMTTDTSTSTAYMELRSLRSDDTAVYYCARFFYDSSGYSTDYWGQGTLVTVSS
VL: ETTLTQSPAFMSVTPGDRAILSCRASQSVDSHLAWYHQKPGQPPRLLIYGASTRATGIPARFSGSRSGTEFTLTISGLQSEDLGVYYCQQYASWPPGYNFGQGTKLEIK
B3 came in with a half-maximal inhibitory concentration (IC50) in assay [1] of 3.7 nM. Besides, the EC50 in assay [2] stood at 0.7 nM; in assay [3], 0.9 nM.

B4: STE73-2C2 (antibody, V domains shown)
VH: QVQLVESGGGLVQPGGSLRLSCAASGITVSSNYMSWVRQAPGKGLEWVSVIYSGGSTFYADSVKGRFTISRDNSKNTLYLQMNSLRAEDTGVYYCARGHDNLDYWGQGTLVTVSS
VL: LPVLTQPHSVSESPGKTVIISCTGSSDSIASNYVQWYQQRPGSAPTTVIYEDNKRPSGVPDRFSGSTDSSSNSASLTISGLKTEDEAEYYCQSYDSNNHWVFGGGTKLTVL
In turn, B4 displayed an IC50 in assay [4] of 3 nM. Besides, the values for the EC50 in assay [5] and in assay [6] were 9.6 nM and 17.9 nM, respectively.

B5: STE73-2G8 (antibody, V domains shown)
VH: QVQLVQSGGGLVKPGGSLRLSCAASGITVSSNYMSWVRQAPGKGLEWVSILYSGGTTFYTDSVKGRFTISRDNSKNTLHLQMNSLRAEDTAVYYCARWSGTYYDYWGQGTLVTVSS
VL: SSELTQDPAVSVALGQTVRITCQGDSLRSYYASWYQQKPGQAPVLVIYGKNNRPSGIPDRFSGSSSGNTASLTITGAQAEDEADYYCNSRDSTNDPVLFGAGTKLTVL
With B5, the half-inhibitory concentration (IC50) in assay [4] worked out at 2.8 nM. Further, the EC50 in assay [5] was 0.7 nM; in assay [6] it was 1 nM.

B6: STE72-1B6 (antibody, V domains shown)
VH: QVKLVQSGGGLVQPGGSLRLSCAASGFTFSSYAMSWVRQAPGKGLEWVSGISGSGGSTYYADSVKGRFTISRDNSKNTLYLQVNSLRAEDTAVYYCAKAPYGDFRGLWYFDYWGQGTLVTVSS
VL: DIVMTQSPFSVSASVGDRVTISCRASQDIRSWLAWYQQKPGKAPQLLIYDASSLQSGVPSRFSGSGSGTDFTLTISSLQPEDFATYYCQQADSVPLTFGGGTKVEIQ
B6 gave an IC50 in assay [1] of 4.8 nM. Also, the results for the concentration giving a half-maximal response (EC50) in assay [2] and in assay [3] were 1.6 nM and 2.2 nM, respectively.

B7: STE73-6C1 (antibody, V domains shown)
VH: QVQLVQSGGGVVQPGRSLRLSCAASGFTFSSYAMHWVRQAPGKGLEWVAVISYDGSNKYYADSVKGRFTISRDNSKNTLYLQMNSLRAEDTAVYYCARSYVGGMDVWGQGTTVTVSS
VL: QLVLTQSPSVSGAPGQSVTISCTGTDSNIGAGYNVHWYQQLPGAAPKLIISYTDNRPSGVPDRFSGSKSGTSASLAITGLQAEDEADYYCQSSDRTLVGSLFGTGTKVTVL
The molecule B7 displayed an IC50 in assay [4] of 4.1 nM. Moreover, the results for the EC50 in assay [5] and in assay [6] were 2 nM and 2.8 nM, respectively.

B8: STE73-9G3 (antibody, V domains shown)
VH: QVQLQESGGGLVQPGGSLRLSCAASGFTFSSYAMSWVRQAPGKGLEWVSAISGSGGSTYYADSVKGRFTISRDNSKNTLYLQMNSLRAEDTAVYYCARDLVLGSGSSNDWGRGTLVTVSS
VL: QPVLTQPPSVSGAPGQSVTISCTGTDSNIGAGYNVHWYQQLPGAAPKLIISYTDNRPSGVPDRFSGSKSGTSASLAITGLQAEDEADYYCQSSDRTLVGSLFGTGTKVTVL
For the molecule B8, in assay [4], the IC50 was 3.4 nM. Also, the figures for the EC50 in assay [5] and in assay [6] were 1.4 nM and 1.6 nM, respectively.

B9: STE73-6B10 (antibody, V domains shown)
VH: QVQLVQSGAEVKKPGASVKVSCKASGYTFTSYGISWVRQAPGQGLEWMGWINPNSGGTNYAQKFQGRVTMTRDTSISTAYMELSRLRSDDTAVYYCARDRLRYGDSGSYYYYGMDVWGQGTTVTVSS
VL: QSALTQPRSVSGSPGQSVTISCTGTSSDVGGYNYVSWYQQHPGKAPKLLISEVTRRPSGVPDRFSGSKSGNTASLTVSGLQTEDEADYYCGSYAGSNTWVFGGGTKLTVL
For the molecule B9, the IC50 in assay [4] came to 73 nM. For the same molecule, the EC50 in assay [5] was 17.3 nM; in assay [6], 15.3 nM.

B10: STE73-2E9 (antibody, V domains shown)
VH: QVQLVQSGAEVKKPGASVKVSCKASGYTFTSYGISWVRQAPGQGLEWMGWISAYNGNTNYAQKLQGRVTMTTDTSTSTAYMELRSLRSDDTAVYYCARGKFDYWGQGTLVTVSS
VL: QSVLTQPPSVSEAPSQRVTISCSGSSSNIGNNAVNWYQQLPGKAPKLLIYYDDVLPSGVSDRFSGSKSGTSASLAISGLQSGDEADYYCAAWDDSLSGVVFGGGTKLTVL
As to B10, the IC50 in assay [4] stood at 3.4 nM. Further, the EC50 in assay [5] amounted to 0.7 nM; in assay [6], 0.6 nM.

B11: STE72-4E12 (antibody, V domains shown)
VH: QVQLVQSGAEVKKPGASVKVSCKASGYTFTSYYMHWVRQAPGQGLEWMGIINPSGGSTSYAQKFQGRVTMTRDTSTSTVYMELSSLRSEDTAVYYCARDLSGGLDYWGQGTLVTVSS
VL: ETTLTQSPATLSVSPGERVTLACRAGQTISSKLAWYRQKPGQAPSLLIYDASTRATGVPARFSGSGSGTEFTLTISSLQSEDFAVYYCQQYSDWPPTFGQGTKVEIK
For B11, the IC50 in assay [1] was found to be 3 nM. The figures for the EC50 in assay [2], in assay [7] and in assay [3] were 4.7 nM, 11.6 nM and 10.4 nM, respectively.

B12: STE70-1E12 (antibody, V domains shown)
VH: QMQLVQSGAEVKKPGASVKVSCKASGYTFTGYYMHWVRQAPGQGLEWMGRINPNSGGTNYAQKFQGRVTMTRDTSTSTAYMELSRLRSDDTAVYYCVRDGYNFNNWFDPWGQGTLVTVSS
VL: NFMLTQPHSVSGSPGETITISCTGSGGSIASNYVQWYRQRPGSAPTIVIYEDTQRPSGVPDRFSGSIDSSSNSASLTISGLKTEDEADYYCQSSESTNHVMFGGGSKLTVL
For B12, in assay [1], the IC50 was 3.2 nM. Moreover, the EC50 in assay [2] stood at 1.1 nM; in assay [3], 1.5 nM.

B13: STE73-2B2 (antibody, V domains shown)
VH: QVQLVQSGAEVKKPGASVKVSCKASGYTFTGYYMHWVRQAPGQGLEWMGWINPNSGGTNYAQKFQGRVTITRDTSASTAYMELSSLRSEDTAVYYCARVSGWYFGAFDIWGQGTMVTVSS
VL: LPVLTQPHSLSESPGKTVNISCTGSSGSIASNYVQWYQQRPGSAPTTVIYEDSHRPSGVPDRFSGSIDSSSNSASLSISGLKTEDEADYYCQSYDSSNNQWVFGGGTKLTVL
On to B13, for which, in assay [4], the IC50 stood at 1.7 nM. The EC50 was 0.5 nM in assay [5] and 0.8 nM in assay [6].
